The text below walks through data of patent US20030144495, “Drosophila recombination-associated protein and methods for use” (Albert Einstein College of Medicine of Yeshiva University, published 2003).

The series has as its target RecA (Escherichia coli, UniProt P0A7G6 P0A7G6:2-353). Kind of series: EMSA; gel shift in presence of ATP-gamma-S, 20 mM Tris pH 7.35, 10 mM MgCl2, 37 C. The note with it: tags: commercial, Promega/Pharmacia/USB; label: 5'-32P. Here is the method: Any oligonucleotide may be used for this assay. For this experiment, an oligonucleotide (33-mer) derived from the central portion of the pUC19 poly linker 5′-[…]-3′ [SEQ ID NO: 20] was endlabeled at the 5′ end with ³²P-ATP using T4 polynucleotide kinase. The oligonucleotide was purified on Qiaquick columns using buffer PN (Qiagen) and the OD at 260 nm indicated a concentration of 5 ng/μl. Any oligonucleotide sequence may be used in this experiment. The SEQ ID NO: 16 oligonucleotide was incubated with 60 ng of DRAP or RecA in various buffers for 30 minutes at 37° C. A loading buffer was added and the material separated on a 6% 1×TAE, polyacrylamide minigel at 250 V for 14 minutes. The gel was dried and exposed to film with one intensifying screen for ˜16 hrs. at −80° C. No degradation of the oligonucleotide was observed. (FIG. 8.) Gel shifting with RecA in the presence of […] is consistent with the known properties of that protein.

Sequence of RecA (P0A7G6 2-353, one chain of several): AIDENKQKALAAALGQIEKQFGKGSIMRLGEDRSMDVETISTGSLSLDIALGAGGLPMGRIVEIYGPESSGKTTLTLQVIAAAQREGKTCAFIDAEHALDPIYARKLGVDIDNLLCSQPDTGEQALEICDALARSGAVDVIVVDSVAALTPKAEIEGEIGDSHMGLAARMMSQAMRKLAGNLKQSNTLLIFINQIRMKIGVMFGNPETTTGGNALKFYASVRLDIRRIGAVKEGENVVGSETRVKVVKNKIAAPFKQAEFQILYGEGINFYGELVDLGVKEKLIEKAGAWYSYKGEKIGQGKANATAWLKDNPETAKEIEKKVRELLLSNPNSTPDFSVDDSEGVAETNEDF

Regarding GGTACCCGGGGATCCTCTAGAGTCGACCTGCAG (ssDNA) [pUC19 polylinker 33-mer], the binding result was “binds”.
